The text below walks through data of patent publication US20220213176A1 (SHANGHAITECH UNIVERSITY, published 2022).

In assay [1] the target is spike of authentic SARS-CoV-2 virus BetaCoV/Australia/VIC01/2020 (SARS-CoV-2). Briefly: cell-based or functional assay.
Another assay concerns the target T1, HCoV-NL63 spike (HCoV-NL63, UniProt Q6Q1S2 19-1356).
T1 construct: whole, on cells
T1 sequence: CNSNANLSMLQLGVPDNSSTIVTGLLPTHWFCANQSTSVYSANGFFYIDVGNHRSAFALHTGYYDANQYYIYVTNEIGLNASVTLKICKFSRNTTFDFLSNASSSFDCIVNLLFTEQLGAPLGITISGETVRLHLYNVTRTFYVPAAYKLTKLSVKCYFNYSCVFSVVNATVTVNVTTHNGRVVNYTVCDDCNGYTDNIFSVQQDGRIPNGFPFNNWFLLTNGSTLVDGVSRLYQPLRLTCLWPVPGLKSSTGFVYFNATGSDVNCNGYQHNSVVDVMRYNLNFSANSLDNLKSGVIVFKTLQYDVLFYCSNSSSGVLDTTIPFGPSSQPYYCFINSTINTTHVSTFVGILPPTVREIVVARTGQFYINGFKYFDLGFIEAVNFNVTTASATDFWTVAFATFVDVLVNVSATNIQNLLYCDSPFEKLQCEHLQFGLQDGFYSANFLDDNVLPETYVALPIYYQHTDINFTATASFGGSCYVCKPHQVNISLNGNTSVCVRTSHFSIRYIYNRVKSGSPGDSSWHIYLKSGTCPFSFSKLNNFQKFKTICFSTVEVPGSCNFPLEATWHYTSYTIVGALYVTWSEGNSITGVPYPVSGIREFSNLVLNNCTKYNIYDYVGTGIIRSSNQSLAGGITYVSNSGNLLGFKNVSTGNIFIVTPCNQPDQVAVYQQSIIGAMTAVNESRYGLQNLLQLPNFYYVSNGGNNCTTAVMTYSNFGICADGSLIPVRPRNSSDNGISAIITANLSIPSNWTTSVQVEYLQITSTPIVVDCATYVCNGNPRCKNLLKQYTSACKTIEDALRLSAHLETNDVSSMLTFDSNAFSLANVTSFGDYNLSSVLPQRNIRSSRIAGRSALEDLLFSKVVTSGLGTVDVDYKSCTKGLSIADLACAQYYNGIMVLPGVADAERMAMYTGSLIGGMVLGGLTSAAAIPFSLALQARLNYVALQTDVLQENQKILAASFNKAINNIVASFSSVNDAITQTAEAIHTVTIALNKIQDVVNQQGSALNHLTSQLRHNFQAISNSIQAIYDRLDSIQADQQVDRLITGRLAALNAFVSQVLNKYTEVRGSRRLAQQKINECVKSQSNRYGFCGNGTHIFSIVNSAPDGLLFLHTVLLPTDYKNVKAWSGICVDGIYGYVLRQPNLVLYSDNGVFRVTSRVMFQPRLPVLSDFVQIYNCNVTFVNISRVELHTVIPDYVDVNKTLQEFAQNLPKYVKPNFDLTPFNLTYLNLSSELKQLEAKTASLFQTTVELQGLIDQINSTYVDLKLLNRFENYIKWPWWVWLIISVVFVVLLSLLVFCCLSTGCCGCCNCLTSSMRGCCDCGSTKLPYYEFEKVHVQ
Nature of the assay: FACS, transfected HEK293T cells, IgG4 antibody.

For a further assay, the target named is T2, HCoV-OC43 spike (HCoV-OC43, UniProt P36334 14-1353).
T2 construct: whole, on cells; also called HCoV-0C43 spike
T2 sequence: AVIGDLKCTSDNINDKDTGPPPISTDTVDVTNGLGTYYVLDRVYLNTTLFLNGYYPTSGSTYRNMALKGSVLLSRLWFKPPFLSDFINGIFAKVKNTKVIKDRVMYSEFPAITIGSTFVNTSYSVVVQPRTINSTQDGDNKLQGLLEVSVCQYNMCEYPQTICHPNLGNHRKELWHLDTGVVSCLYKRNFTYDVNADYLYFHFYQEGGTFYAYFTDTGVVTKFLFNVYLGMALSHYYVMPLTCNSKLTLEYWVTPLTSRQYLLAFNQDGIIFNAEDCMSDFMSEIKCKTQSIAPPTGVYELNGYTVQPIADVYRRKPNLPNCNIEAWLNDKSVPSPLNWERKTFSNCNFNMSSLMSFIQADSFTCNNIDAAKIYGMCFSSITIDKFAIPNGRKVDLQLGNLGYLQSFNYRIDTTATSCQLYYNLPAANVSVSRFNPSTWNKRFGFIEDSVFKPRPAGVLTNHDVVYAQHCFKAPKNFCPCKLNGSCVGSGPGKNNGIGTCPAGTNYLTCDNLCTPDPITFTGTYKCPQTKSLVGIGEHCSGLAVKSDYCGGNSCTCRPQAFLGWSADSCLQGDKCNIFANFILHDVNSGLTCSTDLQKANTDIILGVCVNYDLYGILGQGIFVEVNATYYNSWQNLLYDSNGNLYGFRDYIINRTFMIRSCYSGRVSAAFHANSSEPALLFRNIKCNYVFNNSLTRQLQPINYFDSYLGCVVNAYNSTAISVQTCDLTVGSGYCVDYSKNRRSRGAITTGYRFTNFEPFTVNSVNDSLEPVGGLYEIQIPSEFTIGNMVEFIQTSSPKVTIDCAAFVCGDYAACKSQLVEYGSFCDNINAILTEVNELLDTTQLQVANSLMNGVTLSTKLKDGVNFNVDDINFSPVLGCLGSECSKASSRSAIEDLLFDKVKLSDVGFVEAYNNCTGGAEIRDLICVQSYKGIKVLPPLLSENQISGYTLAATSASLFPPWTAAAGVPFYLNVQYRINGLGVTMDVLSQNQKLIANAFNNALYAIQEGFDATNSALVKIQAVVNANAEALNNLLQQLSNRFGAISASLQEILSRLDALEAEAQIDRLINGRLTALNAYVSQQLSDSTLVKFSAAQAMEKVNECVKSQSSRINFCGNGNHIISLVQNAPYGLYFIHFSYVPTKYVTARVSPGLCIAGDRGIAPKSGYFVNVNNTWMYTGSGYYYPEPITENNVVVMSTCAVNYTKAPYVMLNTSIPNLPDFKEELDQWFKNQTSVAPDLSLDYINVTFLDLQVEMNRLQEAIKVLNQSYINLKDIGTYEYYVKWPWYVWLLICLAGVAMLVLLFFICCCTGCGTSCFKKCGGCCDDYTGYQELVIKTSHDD
Nature of the assay: FACS, transfected HEK293T cells, IgG4 antibody.

B1: S-D4 (antibody, V domains shown)
VH: QVQLQESGGGVVQPGRSLRLSCEVSGFTFSDYGMHWVRQAPGKGLEWVAVIWSEGSTEYYADSVKGRFTISRDNSKDTLYLQMNSLRAEDTAVYYCARPGYPTSTDRSPAAAGARQYYYYGMDVWGQGTTVTVSS
VL: NFMLTQPHSVSESPGKTVTISCTRSGGSGAANYVQWYQQRPGSSPTTLIYEDSRRPPGVPDRFSGSVDTSSNSASLTISGLQTEDEADYYCQSYDSSNHVVFGGGTKLTVLG
notes: also called S-D4 dimer; S-D4 IgG4
For the molecule B1, the “NT50, authentic virus B VIC01 neutralization” value in assay [1] came to 2.04 nM. Also, the binding result with HCoV-NL63 spike and with HCoV-OC43 spike was “no binding” in each case.

B2: S-E6 (antibody, V domains shown)
VH: QVTLRESGPGLVKPSETLSLTCAVSGGSLSSVNYYWSWIRQHPGKGLEWIGYIYYSGSTNYNPSLKSRVTMSLDTSKNQFSLKLSSVTAADTAVYYCATPGAIMGALHIWGQGTLVTVSS
VL: QAVLTQPSSASSTPGQRVIISCSGSSSNIGSNTVSWYQQVPGAAPKLLIYFDYRRPSGVPDRFSGTRSGTSASLGISGLQSEDEADYYCAAWDDSLSAWVFGRGTKLTVLG
notes: also called S-E6 dimer; dimer S-E6
For the molecule B2, the “NT50, authentic virus B VIC01 neutralization” value in assay [1] was 0.15 nM. Moreover, the binding result with HCoV-NL63 spike and with HCoV-OC43 spike was “no binding” each time.

B3: S-B8 (antibody, V domains shown)
VH: QVQLVQSGGGLIQPGGSLRLSCAASGFTVSLSHMNWVRQAPGKGLEWVSITYGDGNSDYADSVKGRFTISRDNSKNTLYLQMNSLRAEDTAVYYCAREYYYGMDVWGQGTTVTVSS
VL: not shown
notes: also called S-B8 dimer
For B3, the “NT50, authentic virus B VIC01 neutralization” value in assay [1] worked out at 0.88 nM. The binding result in the assay with HCoV-NL63 spike and in the assay with HCoV-OC43 spike was “no binding” throughout.
